Measurements published in patent US9371374.

B1: HCV 208A-1064 (antibody, V domains shown)
VH: EVQLQQSGPELVKPGASVKISCKTSGYTFTEYAMHWMKQSHGKSLEWIGGINPTNGDTIYNQKFKDKAKLTVDRSSSTAYMELRSLTSDDSALFYCARRELDYFASWGQGTTLTVSS
VL: DIVLTQSPASLIVSLGQTATISCRASQSVSTSRFSYLHWIQQKPGQPPKLLIKYASNLESGVPVRFSGSGSGTDFTLNIHPVEEEDTATYFCQHSWEFPFTFGSGTKLKIKR
B2: HCV 208A-126 (antibody, V domains shown)
VH: QLQQSGPVLVKPGASVMISCKTSGYTFTENAMHWVKQSHGKSLEWIGGVNPNNGDTIFNQKFKGKATLTVDKSSNTAFTELRSLPSEESTVYYCVRRGLDFFDYWGQGTSVTVSS
VL: DIVLTQSPASLAVSLGQRATISCRASQSVSTSRYSYMHWYQQKPGQPPKLLIKYASNLESGVPARFSGSGSGTDFTLNIHPVAEEDTAAYYCQHSWEFPFTFGSGTKLEIKR
B3: HCV 208A-133 (antibody, V domains shown)
VH: QLQQSGPVLVGPGASVMISCKTSGYTFTENAMHWVEQSHGKSLEWIGGVNPNNGDTIFNQKFKGKATLTVDKSSSTAFMEFRSLTSEESTVYYCVRRELDFFDYWGQGTSVTVSS
VL: DIVLTQSPASLAVSLGQRATISCRASQSVSTSRYSYMHWYQQKPGQPPKLLIKYASNLESGVPARFSGSGSGTDFTLNIHPVAEEDTATYYCQHSWEFPFTFGSGTKLEIKR
B4: HCV 208A-134 (antibody, V domains shown)
VH: QGQMQQSGAELAKPGASVKLSCKTSGFTFSSSYISWLKQKPGQSLEWIAWIYAGTGNTNYNQKFTDKAQLTVDTSSSTAYMQLSSLTTEDSAIYYCAISGTGFTYWGQGTLVTVSA
VL: EVLMTQSPLSLPVSLGDQASISCRSSQSLEHTNGNTYLEWFLQRPGQPPKLLIYKVSSRFSGVPDRFSGSGSGTDFTLKISRVEAEDLGVYYCFQGSHVPFTFGSGTKLAIKR
B5: HCV 208A-159 (antibody, V domains shown)
VH: QLQQSGPAQVKPGASVMISCKTSGYTFTENAMHWVKQSHGKSLEWIGGVNPNNGDTIFNQKFKDKAALTVDKSSSTAFMELRSLTSEESTVYYCVRRELDFFDYWGQGTSVTVSS
VL: DIVLTQSPASLAVSLGQRATISCRASQSVSTSRYSYVHWYQQKPGQPPKLLIKYAANLESGVPARFSGSGSGTDFTLNIHPVAEEDAAAYYCQHSWEFPFTFGSGTKLEIKR
B6: HCV 208A-207 (antibody, V domains shown)
VH: QGQLQQPGAEFVKPGASLKLSCRASGYTFTSYWIHWVKQRPGQGLEWIGEIDPSDSYINQNQKFRGKATLTVDKSSSTAYMELSGLTSEDSAVYYCARHYYGVLDSWGQGTTLTVSS
VL: DIVLTQSPATLSVTPGDRVSLSCRASQRIYNYLHWYQQKSHESPRLLTKYASQSISGIPSRFSGSGSGTDFILTINSVETEDFGMYFCQQSNSWPLTFGAGTKLELRR
B7: HCV 208A-210 (antibody, V domains shown)
VH: QVQLQQSGPELVKPGASMRISCKASGYTFTSYYVHWIKQRPGQGLEWIGCIYPGDVNTDYNEKFKGKATLTADKSSSTAYMQVSTLTSEDSAIYFCVLYYYGSFAYWGQGTLVTVSA
VL: EIVLTQSPAITAASLGQNVTITCRASSSVSYMHWYRQKSGTSPQLWIYEISRRASGVPARFRASGSGTSYSLTISSMEAEDAAIYYCQQWNYPLTFGAGTKLEVKR
B8: HCV 208A-222 (antibody, V domains shown)
VH: EVQLQQSGPELEKPGASVRISCKTSGYTFTEYAMHWVKQSHGKSLEWIGGINPNNGNAIYNQIFKDKATLTVDRSSSTAYMGLRSLTFGDSGVYFCVRRQLDYFDYWGQGASLTVSS
VL: DIVVTQSPASLAVSLGQRATISCRASQSVSTSRYSYLHWYQQKPGQPPKLLIKYASNLESGVPARFSGSGSGTDFTLNIHPVGEEDTATYYCQHSWEFPFTFGSGTKLEIKR
B9: HCV 208A-293 (antibody, V domains shown)
VH: EVQLQQSGPELVKPGASVKISCKASGFTFTEYAMHWMKQSHGKSLEWIGGINPTNGDAIYNQKFKDKAKLTVDRSSSTAYMELRSLTSDDSALFYCARRELDYFPSWGQGTTLTVSS
VL: DIVLTQSPASLIVSLGQRATISCRASQSVSTSRFSYVHWIQQKPGQPPKLLIKYASNLESGVPVRFSGSGSGTDFILNIHPVEEEDTATYFCQHSWEFPFTFGSGTKLEIKR
B10: HCV 208A-352 (antibody, V domains shown)
VH: QGQMQQSGAELVKPGASVKLSCKTSGFTFSSSFISWLKQKPGQSLEWIAWIYAGTGNTNYNQKFTDKAQLTVDTSSSTAYMQFSSLTTEDSAIYYCAISGTGFTYWGQGTLVTVSA
VL: DVLMAQTPLSLPVTLGDQASISCRSSQSLVHSNGNTYLEWFLQKPGQSPKLLIYNVSNRFSGVPDRFSGSGSGTDFTLKISRVEAEDLGVYYCFQGSHVPLTFGSGTKLEIKR
B11: HCV 208A-422 (antibody, V domains shown)
VH: DVQLQESGPGLVNPSQSLSLTCSVTGYSITSGYYWIWIQQSPGNKLEWMGYIKYDGGNNYSPSLKNRISIARDTSKNQCFLKLNSVTIEDTATYYCTRGSDSFDYWGQGTTLTVSS
VL: DIVLTQSPASLAVSLGQRAIISCKASQSVSFAGTNLMHWYQQKPGQQPKLLIYRASNLETGVPTRFSGSGSRTDFTLNIHPVEEDDAATYYCQQSREYYTFGGGTKLEIKR
B12: HCV 208A-442 (antibody, V domains shown)
VH: DVQLQESGPGLVNPSQSLSLTCSVTGYSITSGYYWIWIRQFPGNKLEWMGYIKYDGGNNYSPSLKNRISIARDTSKNQFFLKLNSVTIEDTATYYCTRGSDSFDYWGQGTTLTVSS
VL: DIVLTQSPASLAVSLGQRAIISCKASQSVSFAGTNLMHWYQQKPGQQPKLLIYRASNLETGVPTRFSGSGSRTDFTLNIHPVEEDDAATYYCQQSREYYTFGGGTKLEIKR
B13: HCV 208A-557 (antibody, V domains shown)
VH: QGQMQQSGAELVKPGASVKLSCKTSGFTFSSSYISWLKQKPGQSLEWIAWIYAGTGNTNYNQKFTDKAQLTVDTSSSTAYMQLSSLTTEDSAIYYCAISGTGFTYWGQGTLVTVSA
VL: DIALTQSPASLAVSLGQRATISCRASQSVSTSRYSYMHWYQQKPGQPPELLIKYASNLESGVPARFSGSGSGTDFTLNIHPVGEEDTATYYCQHSWDFPFTFGSGTKLEIKR
B14: HCV 208A-605 (antibody, V domains shown)
VH: EVQLQQSGPELEKPGASVKISCKTSGYTFTEYAIHWVKQSHGMSLEWIGGINPSNGNAIYNQIFKDKATLTVDRSSSTAYMGLRSLTFGDSGVYFCVRRQLDFFDYWGQGASLTVSS
VL: DIVVTQSPASLAVSLGQRATISCRASQSVSTSRYSYLHWYQQKPGQPPKLLIKYASNLESGVPARFSGSGSGTDFTLNIHPVGEEDTATYYCQHSWEFPFTFGSGTKLEIKR

Columns and labels:
Assay in all cases: EIA, captured mAb
[1] = target: biotinylated HCV core peptide 151-171 (Peptide 3) (HCV-1)
[2] = target: biotinylated HCV core peptide 141-161 (Peptide 2) (HCV-1)
[3] = target: biotinylated HCV core peptide 134-154 (Peptide 1) (HCV-1)

| Binder | Reactivity (OD492) [1] | Reactivity (OD492) [2] | Reactivity (OD492) [3] |
| --- | --- | --- | --- |
| B1 | 0.12 OD | 3.5 OD | 0.1 OD |
| B2 | 0.1 OD | 2.08 OD | 0.2 OD |
| B3 | 0.13 OD | 3.68 OD | 0.1 OD |
| B4 | 0.06 OD | 0.08 OD | 2.06 OD |
| B5 | 0.19 OD | 3.77 OD | 0.15 OD |
| B6 | 0.08 OD | 0.17 OD | 1.24 OD |
| B7 | 0.05 OD | 1.15 OD | 0.06 OD |
| B8 | 0.08 OD | 2.7 OD | 0.06 OD |
| B9 | 0.11 OD | 2.42 OD | 0.08 OD |
| B10 | 0.06 OD | 0.07 OD | 1.08 OD |
| B11 | 0.1 OD | 0.84 OD | 0.05 OD |
| B12 | 0.06 OD | 3.04 OD | 0.08 OD |
| B13 | 0.06 OD | 2.41 OD | 0.05 OD |
| B14 | 0.16 OD | 3.71 OD | 0.22 OD |
